Measured values published in article PMC4370478, “Inhibition of Zn(II) Binding Type IA Topoisomerases by Organomercury Compounds and Hg(II)”.

Biological target: E. coli topoisomerase I (ETOP) (Escherichia coli, UniProt P06612 1-865)
Assay: fluorescence anisotropy; 0.5 mM MgCl2; no inhibitor (Kd fitted, value not in the text held); 50 mM Tris-HCl pH 7.5, 100 mM NaCl, 0.1 mM EDTA, 0.5 mM MgCl2; 10-30 nM oligonucleotide; temperature not stated
Details: label: 3' 6-carboxyfluorescein; hairpin, 16 bp stem

E. coli topoisomerase I (ETOP), sequence (P06612 whole entry): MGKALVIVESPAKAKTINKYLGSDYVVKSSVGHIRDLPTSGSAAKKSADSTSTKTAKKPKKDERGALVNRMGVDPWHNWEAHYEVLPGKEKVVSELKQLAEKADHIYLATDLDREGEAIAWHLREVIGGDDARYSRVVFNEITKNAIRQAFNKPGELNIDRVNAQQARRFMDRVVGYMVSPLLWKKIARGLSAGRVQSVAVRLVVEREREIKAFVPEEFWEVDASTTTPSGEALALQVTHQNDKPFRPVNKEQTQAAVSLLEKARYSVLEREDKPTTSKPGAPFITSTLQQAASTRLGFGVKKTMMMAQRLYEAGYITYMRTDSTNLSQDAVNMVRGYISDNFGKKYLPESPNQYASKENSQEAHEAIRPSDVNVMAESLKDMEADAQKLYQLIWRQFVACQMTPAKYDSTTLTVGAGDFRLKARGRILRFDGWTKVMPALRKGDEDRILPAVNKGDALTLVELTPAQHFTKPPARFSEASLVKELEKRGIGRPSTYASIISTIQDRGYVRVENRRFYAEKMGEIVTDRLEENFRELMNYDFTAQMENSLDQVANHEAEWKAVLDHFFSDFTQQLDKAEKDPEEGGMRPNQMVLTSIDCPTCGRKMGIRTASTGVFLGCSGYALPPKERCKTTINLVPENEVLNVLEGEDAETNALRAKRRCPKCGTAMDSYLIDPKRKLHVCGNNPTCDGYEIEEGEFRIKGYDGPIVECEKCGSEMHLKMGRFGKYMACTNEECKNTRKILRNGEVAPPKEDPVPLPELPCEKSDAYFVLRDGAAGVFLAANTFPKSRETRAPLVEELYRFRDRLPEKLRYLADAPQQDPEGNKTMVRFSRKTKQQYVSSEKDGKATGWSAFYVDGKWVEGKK

B1: 59-base stem-loop oligonucleotide (non-cleavable) (structured_DNA)
DNA: GCCCTGAAAGATTATGGAATGGGATTAGGGTAAAGGAAGAGAGCATAATCTTTCAGGGC
B1: binds.
